# Measured values published in the nanobody polyreactivity screen of Harvey et al. (2022).
# Assay: yeast display, Sf9 membrane polyspecificity reagent, FACS + sequencing; frameworks hold sequencing errors
# In short: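 After 36–48 hours of galactose induction, yeast (Saccharomyces cerevisiae BJ5465) displaying a synthetic nanobody library were stained at 4 °C for 1 hour with 10% biotinylated, detergent-solubilized Sf9 membrane reagent. Streptavidin microbeads enriched the stained cells before FACS sorting into low and high (top ~1%) gates on anti-HA and streptavidin fluorescence. Each clone's polyreactivity label reflects its gate of origin.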
row,Sequence,polyreactivity (PSR sort gate)
1,QVQLVESGGGLVQAGGSLRLSCAASGFTFAYYAMGWYRQAPGKERELVAGISWRGGRTYYADSVKGRFTISRDNAKNTVYLQMNSLKPEDTAVYYCAKQPGNFGRFDYWGQGTQVTVSS,high polyreactivity
2,QVQLVESGGGLVQAGGSLRLSCAASGFTFAYYVMGWYIQAPGKETELVAAISISGARTYYAESVKGRFTISRDNSKNTVYLQMNRLKPEDTAVYYCAADRRTDGHDYWGLGTQVTVSS,high polyreactivity
3,QVQLVESGGGLVQAGGSLRLSCAASGFTFDANAMGWYRQAPGKERELVAAISWSGGSTYYADSVKGRFTISRDNAKNTVYLQMNSLKPEDTAVYYCAARRYSYVGGQGSDYWGQGTKVTVSS,high polyreactivity
4,QVQLVESGGGLVQAGGSLRLSCAASGFTFDAYAMGWYRQAPGKERELVADINYSVGSTTYADSVKVRFTISRDNAKNTVYLQMNSLKPEDTAVYYCAAQGTWYAWDYDYWGQGTQVTVSS,low polyreactivity
5,QVQLVESGGGLVQAGGSLRLSCAASGFTFDDNAMGWYRQAPGKERELVAVITKSGGRTYYADSVKGRFTLSRDNAKNTVYLQMNSLKPEDTAVYYCNADGRNWYYKWYDYWGQGTQVTVSS,low polyreactivity
6,QVQLVESGGGLVQAGGSLRLSCAASGFTFDEKAMGWYRQAPGINYSGASTYYADSVKGRFTISRDNAKNTVYLQMNSLKPEDTAVYYCAAEVVAQMNYWGQGTQVTVSS,low polyreactivity
7,QVQLVESGGGLVQAGGSLRLSCAASGFTFDENAMGWYRQAPGINYSGASTYYADSVKGRFTISRDNATNTVYLQMNSLKPEDTAVYYCAAEVVAQMNYWGQGTQVTVSS,low polyreactivity
8,QVQLVESGGGLVQAGGSLRLSCAASGFTFDFYDMGWYRQAPGKERELVAAISWDGGTTYYADSVKGRFTISRDNAKNTVYLQMNSLKPEDTAVYYCAADDWVYVPTRAWYLYEYWGQGTQVTVSS,low polyreactivity
9,QVQLVESGGGLVQAGGSLRLSCAASGFTFDIYAMGWYRQAPGKERELVADITSGGSTDYADSVKGRFTISRDNAKNTVYLQMNSLKPEDTAVFYCNAAVFYEPEWQYDYWGQGTQVTVSS,low polyreactivity
10,QVQLVESGGGLVQAGGSLRLSCAASGFTFDIYAMGWYRQAPGKERELVADITSGGSTDYADSVKGRFTISRDNAKNTVYVQMNSLKPEDTAVYYSNAAVFYDPEWQYDYWGQGTQVTVSS,low polyreactivity
11,QVQLVESGGGLVQAGGSLRLSCAASGFTFDIYAMGWYRQAPGKERELVATISRSGGTTYYADSVKGRFTISRDNAKNTVYLQMNSLKPEDTAVYYCAAGAYSYRYRYRMDYWGQGTQVTVSS,high polyreactivity
12,QVQLVESGGGLVQAGGSLRLSCAASGFTFDNYAMGWYRQEPGKERELVAAINISGGRTYYADSVKGRFTISRDNAKNTVYLQMNSLKPEDTAVYYCNIYYWYYALDYWGQGTQVTVSS,high polyreactivity
13,QVQLVESGGGLVQAGGSLRLSCAASGFTFDNYTMGWYRQAPGKERELVAAITSSAGSTDYADSVKGRFTISRDNAKNTVYLQMNSLKPEDTAVYYCNDDFLYGTYDYWGQGTQVTVSS,low polyreactivity
14,QVQLVESGGGLVQAGGSLRLSCAASGFTFDNYVMGWYRQAPGKERELVAAISKSGTSTYYADSVKGRFTISRDNAKNTVYLQMNSLKPEDTAVSYCAARQYSQEPYDYWGQGTQVTVSS,high polyreactivity
15,QVQLVESGGGLVQAGGSLRLSCAASGFTFDPYAIGWYRQAPGKERELVAAISISGGRTYYADSVKGRITISRDNAKNTVYVQMISLKPEDSAVYYCAVAQSHYFGGYGYWGQGTKVTVSS,low polyreactivity
16,QVQLVESGGGLVQAGGSLRLSCAASGFTFDPYAMGWYRQAPGKERELVAAISWIGTNTYYADSVKGRFTISRDNAKNTVYLLMNSLKPEDTAVYYCAADGPTIAVGSYDYWGQGTQVTVSS,low polyreactivity
17,QVQLVESGGGLVQAGGSLRLSCAASGFTFDQYGMGWYRQAPGKERVLVAGISWGGGTTYYADSVKGRFTISRDNAKNTVYLQMNSLKPEDTAVYYCAAVRPGYPYYGSDYWGQGTQVTVSS,low polyreactivity
18,QVQLVESGGGLVQAGGSLRLSCAASGFTFDRYAMGWYRQAPGKERELVAAISRSGGSTHYADSVKGRFTISRDNAKNTVYLQMNSLKPEDTAVYYCNKRWFYDGYDYWGQGTQVTVSS,high polyreactivity
19,QVQLVESGGGLVQAGGSLRLSCAASGFTFDRYAMGWYRQAPGKERELVAAISRSGGSTHYADSVKGRFTISRDNAKNTVYLQMNSLKPEDTAVYYCNKRWYYDGYDYWGQGTQVTVSS,high polyreactivity
20,QVQLVESGGGLVQAGGSLRLSCAASGFTFDSYAMGWYRQAPGKERELVAAITWDGGSTYYADSVKGRFTISRDNAKNTVYLPMNSLKPEDTAVYYCAAVSGFYDQYDYWGQGTQVTVSS,low polyreactivity
21,QVQLVESGGGLVQAGGSLRLSCAASGFTFDSYAMGWYRQAPGKERELVAAITWDGGSTYYADSVKGRFTISRDNAKNTVYLQMNSLKPEDTAVYYCAADFGTISIDVYSWMDYWGQGTQVTVSS,low polyreactivity
